Experimental data taken from the supplement of paper PMC10065799, “High-throughput profiling of sequence recognition by tyrosine kinases and SH2 domains using bacterial peptide display” (eLife, 2023).

Assays:
SHP2-C SH2 = test: SH2 binding enrichment of the phosphorylated peptide, bacterial display (enrichment ratio); higher = better substrate or ligand; peptides without Tyr show the background
c-Src SH2 = test: as above
Grb2 SH2 = Grb2 SH2 (UniProt P62993); test: as above
Fer (mouse) = test: phosphorylation enrichment, bacterial display (enrichment ratio); higher = better substrate or ligand; peptides without Tyr show the background
MERTK = MERTK (UniProt Q12866); test: as above
MERTK, sequence (Q12866 whole entry, looked up): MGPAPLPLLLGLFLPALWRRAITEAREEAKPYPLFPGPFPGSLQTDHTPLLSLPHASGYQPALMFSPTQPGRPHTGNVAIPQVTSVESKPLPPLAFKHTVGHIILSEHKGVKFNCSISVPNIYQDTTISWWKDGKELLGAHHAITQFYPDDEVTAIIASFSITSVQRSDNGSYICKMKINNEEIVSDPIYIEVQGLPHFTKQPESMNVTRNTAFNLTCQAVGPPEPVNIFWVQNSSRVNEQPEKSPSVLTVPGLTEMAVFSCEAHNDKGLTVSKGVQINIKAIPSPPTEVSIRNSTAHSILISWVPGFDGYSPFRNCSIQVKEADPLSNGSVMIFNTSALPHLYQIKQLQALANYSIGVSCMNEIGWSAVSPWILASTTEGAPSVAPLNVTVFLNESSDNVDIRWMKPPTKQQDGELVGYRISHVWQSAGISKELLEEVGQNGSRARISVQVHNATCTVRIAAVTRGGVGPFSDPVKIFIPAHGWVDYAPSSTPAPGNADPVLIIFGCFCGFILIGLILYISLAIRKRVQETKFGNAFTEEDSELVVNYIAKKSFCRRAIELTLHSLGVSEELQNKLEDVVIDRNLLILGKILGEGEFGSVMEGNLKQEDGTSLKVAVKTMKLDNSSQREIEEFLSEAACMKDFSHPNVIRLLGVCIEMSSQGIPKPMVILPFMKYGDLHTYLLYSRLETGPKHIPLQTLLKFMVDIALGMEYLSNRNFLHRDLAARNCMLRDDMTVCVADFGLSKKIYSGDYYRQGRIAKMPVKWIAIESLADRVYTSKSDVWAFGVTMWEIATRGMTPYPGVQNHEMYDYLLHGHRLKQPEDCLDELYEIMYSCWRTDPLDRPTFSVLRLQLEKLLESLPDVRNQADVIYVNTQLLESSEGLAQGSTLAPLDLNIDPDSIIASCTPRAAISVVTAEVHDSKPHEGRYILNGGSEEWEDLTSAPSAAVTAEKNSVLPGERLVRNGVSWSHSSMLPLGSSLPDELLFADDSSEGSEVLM

Hck = Hck (UniProt P08631); test: as above
Hck, sequence (P08631 whole entry, looked up): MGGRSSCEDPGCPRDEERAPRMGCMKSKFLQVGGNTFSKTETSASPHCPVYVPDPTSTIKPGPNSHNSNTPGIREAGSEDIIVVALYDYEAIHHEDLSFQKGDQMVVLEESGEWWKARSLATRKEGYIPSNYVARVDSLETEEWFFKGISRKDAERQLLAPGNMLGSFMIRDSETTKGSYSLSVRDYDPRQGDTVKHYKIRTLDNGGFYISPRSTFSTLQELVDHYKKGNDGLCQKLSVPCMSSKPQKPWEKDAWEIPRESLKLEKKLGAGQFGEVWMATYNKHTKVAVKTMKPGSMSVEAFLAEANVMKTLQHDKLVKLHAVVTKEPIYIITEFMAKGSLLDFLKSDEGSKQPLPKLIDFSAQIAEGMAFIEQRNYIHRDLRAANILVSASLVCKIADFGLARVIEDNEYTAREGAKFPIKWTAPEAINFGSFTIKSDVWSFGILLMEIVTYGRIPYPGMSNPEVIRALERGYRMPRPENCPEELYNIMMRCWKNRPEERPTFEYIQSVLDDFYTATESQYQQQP

Fes = Fes (UniProt P07332); test: as above
Jak2 = Jak2 (UniProt O60674); test: as above
Jak2, sequence (O60674 whole entry, looked up): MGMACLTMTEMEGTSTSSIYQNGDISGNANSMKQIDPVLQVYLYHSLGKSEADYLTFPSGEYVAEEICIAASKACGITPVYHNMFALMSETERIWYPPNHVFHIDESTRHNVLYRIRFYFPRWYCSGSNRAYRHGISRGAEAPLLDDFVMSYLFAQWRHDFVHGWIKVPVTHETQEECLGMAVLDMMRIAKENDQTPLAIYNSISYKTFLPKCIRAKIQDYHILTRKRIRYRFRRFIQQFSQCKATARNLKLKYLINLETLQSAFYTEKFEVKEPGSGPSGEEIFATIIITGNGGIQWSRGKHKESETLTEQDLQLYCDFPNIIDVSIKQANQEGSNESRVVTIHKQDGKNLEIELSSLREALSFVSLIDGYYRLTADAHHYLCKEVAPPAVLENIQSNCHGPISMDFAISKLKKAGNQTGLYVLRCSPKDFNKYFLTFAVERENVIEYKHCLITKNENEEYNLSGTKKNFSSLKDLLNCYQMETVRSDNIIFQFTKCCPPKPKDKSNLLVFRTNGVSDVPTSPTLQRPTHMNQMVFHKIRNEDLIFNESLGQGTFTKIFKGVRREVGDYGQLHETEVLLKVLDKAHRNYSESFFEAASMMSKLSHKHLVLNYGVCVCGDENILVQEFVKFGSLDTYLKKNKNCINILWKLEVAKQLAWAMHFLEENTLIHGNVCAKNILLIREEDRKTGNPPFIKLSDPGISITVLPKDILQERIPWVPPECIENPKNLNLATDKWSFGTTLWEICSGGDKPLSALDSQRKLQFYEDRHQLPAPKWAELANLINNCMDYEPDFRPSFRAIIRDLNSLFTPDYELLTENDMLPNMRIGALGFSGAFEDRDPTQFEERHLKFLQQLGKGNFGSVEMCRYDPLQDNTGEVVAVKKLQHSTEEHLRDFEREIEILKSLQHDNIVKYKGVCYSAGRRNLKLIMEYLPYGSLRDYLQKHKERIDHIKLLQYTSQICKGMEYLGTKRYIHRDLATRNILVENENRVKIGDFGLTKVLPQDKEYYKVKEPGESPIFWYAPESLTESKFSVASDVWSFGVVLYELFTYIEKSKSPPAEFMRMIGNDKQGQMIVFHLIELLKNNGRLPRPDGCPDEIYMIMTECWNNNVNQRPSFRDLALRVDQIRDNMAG

AncSZ = test: as above
EPHB1 = EPHB1 (UniProt P54762); test: as above
FGFR1 = FGFR1 (UniProt P11362); test: as above
FGFR1, sequence (P11362 whole entry, looked up): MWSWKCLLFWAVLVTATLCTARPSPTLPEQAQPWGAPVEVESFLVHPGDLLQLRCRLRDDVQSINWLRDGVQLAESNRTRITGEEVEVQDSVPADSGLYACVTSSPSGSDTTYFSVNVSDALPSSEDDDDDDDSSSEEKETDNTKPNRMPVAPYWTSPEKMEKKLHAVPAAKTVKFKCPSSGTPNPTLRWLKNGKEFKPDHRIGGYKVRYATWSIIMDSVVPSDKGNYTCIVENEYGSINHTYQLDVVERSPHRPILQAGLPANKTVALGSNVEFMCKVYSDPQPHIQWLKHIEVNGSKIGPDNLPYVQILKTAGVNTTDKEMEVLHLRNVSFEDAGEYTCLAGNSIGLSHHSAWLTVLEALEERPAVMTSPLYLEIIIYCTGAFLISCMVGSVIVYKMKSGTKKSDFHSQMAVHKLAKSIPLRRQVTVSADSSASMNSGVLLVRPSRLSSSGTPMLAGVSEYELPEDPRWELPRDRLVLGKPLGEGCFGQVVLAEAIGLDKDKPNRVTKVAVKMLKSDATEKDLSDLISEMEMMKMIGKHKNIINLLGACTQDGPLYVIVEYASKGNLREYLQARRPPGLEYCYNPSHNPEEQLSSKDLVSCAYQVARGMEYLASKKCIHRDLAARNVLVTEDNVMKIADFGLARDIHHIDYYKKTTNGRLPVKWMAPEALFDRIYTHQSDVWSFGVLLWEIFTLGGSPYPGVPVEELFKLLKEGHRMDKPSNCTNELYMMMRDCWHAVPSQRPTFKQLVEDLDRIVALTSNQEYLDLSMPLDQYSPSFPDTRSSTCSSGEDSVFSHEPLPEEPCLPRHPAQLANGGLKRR

Fyn = Fyn (UniProt P06241); test: as above
Fyn, sequence (P06241 whole entry, looked up): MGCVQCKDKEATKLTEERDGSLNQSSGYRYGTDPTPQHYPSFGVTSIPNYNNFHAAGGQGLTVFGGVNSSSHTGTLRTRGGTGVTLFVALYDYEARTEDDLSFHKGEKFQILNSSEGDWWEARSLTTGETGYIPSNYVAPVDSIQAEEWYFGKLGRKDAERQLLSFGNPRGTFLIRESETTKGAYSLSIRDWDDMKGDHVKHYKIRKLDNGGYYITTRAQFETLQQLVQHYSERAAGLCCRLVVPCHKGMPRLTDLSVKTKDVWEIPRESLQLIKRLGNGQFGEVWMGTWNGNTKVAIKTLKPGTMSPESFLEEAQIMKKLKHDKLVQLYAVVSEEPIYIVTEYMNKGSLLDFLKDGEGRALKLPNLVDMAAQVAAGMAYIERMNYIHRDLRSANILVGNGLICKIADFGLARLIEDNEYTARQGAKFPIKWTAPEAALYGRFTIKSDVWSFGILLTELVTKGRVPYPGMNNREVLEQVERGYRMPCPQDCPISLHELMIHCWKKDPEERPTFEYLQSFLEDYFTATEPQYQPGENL

c-Abl (mouse) = test: as above
FGFR3 = FGFR3 (UniProt P22607); test: as above
EPHB2 = EPHB2 (UniProt P29323); test: as above
EPHB2, sequence (P29323 whole entry, looked up): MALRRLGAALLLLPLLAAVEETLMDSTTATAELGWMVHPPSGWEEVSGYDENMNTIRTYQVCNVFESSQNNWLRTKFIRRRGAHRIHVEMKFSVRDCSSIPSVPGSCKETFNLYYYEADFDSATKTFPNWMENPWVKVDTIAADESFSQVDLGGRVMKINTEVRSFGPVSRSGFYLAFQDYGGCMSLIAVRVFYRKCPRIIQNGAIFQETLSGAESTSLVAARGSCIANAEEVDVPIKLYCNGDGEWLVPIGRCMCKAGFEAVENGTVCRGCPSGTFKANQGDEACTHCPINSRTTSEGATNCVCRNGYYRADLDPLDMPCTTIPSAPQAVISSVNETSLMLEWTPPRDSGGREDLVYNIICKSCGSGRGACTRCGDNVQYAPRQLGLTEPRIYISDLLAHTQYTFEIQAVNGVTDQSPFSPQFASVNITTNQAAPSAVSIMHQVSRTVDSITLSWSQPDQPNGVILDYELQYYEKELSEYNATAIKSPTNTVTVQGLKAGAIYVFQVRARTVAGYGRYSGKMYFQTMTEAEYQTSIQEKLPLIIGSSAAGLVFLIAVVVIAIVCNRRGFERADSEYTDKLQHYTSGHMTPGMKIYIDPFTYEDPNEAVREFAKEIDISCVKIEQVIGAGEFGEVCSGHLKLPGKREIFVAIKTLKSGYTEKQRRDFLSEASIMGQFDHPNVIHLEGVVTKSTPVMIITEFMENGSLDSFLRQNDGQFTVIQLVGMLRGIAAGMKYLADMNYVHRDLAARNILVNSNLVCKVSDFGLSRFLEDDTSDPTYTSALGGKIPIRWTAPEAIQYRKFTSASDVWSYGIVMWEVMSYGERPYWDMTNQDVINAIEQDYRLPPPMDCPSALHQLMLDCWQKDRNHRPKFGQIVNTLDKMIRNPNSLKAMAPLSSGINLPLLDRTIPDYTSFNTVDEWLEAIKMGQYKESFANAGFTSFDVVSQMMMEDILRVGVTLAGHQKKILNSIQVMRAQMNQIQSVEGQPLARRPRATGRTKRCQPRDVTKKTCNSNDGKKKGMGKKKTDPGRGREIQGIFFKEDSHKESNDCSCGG

c-Src = test: as above
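Throughout, for SH2 binding enrichment of the phosphorylated peptide, bacterial display: peptide library displayed on the E. coli surface as eCPX fusions, selected cells deep-sequenced, score is each peptide's frequency after selection divided by its frequency in the input.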
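Throughout, for phosphorylation enrichment, bacterial display: 11-residue human phosphosite peptides and single-mutation variants displayed on the E. coli surface, counted by deep sequencing, each peptide's frequency after selection divided by its frequency in the unselected input library; frequency after pTyr selection over input frequency; kinase dosed for 20-30% of maximal phosphorylation in three min.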

SH2 binding enrichment (SHP2-C SH2) | SH2 binding enrichment (c-Src SH2) | SH2 binding enrichment (Grb2 SH2) | Sequence | phosphorylation enrichment (Fer (mouse)) | phosphorylation enrichment (MERTK) | phosphorylation enrichment (Hck) | phosphorylation enrichment (Fes) | phosphorylation enrichment (Jak2) | phosphorylation enrichment (AncSZ) | phosphorylation enrichment (EPHB1) | phosphorylation enrichment (FGFR1) | phosphorylation enrichment (Fyn) | phosphorylation enrichment (c-Abl (mouse)) | phosphorylation enrichment (FGFR3) | phosphorylation enrichment (EPHB2) | phosphorylation enrichment (c-Src)
0.952 | 0.705 | 0.997 | PSFSEYASVQV [SIRPA_Y496] | 3.49 | 0.474 | 1.93 | 0.801 | 1.02 | 1.11 | 6.25 | 1.05 | 2.49 | 4.02 | 1.05 | 8.42 | 2.35
0.842 | 0.472 | 0.926 | PSGPMYRGAVP [ASAH1_Y43_T42M] | 0.347 | 0.483 | 0.48 | 1.21 | 0.67 | 0.617 | 0.34 | 0.392 | 0.467 | 0.68 | 0.573 | 0.539 | 0.334
0.362 | 0.373 | 1.48 | PSNTEYPGPHS [TP63_Y171_D170E] | 0.498 | 0.383 | 0.477 | 0.832 | 0.568 | 0.806 | 0.774 | 0.56 | 0.507 | 0.696 | 0.497 | 0.671 | 0.41
0.879 | 0.47 | 0.811 | PSTFRYERGSR [INPPL1_Y663_P659S_YF] | 0.352 | 0.366 | 0.345 | 0.484 | 0.459 | 0.51 | 0.368 | 0.411 | 0.408 | 0.628 | 0.429 | 0.47 | 0.491
1.35 | 0.985 | 1.36 | PTTKTYFLHFD [HBA1_Y43_P45L] | 0.532 | 0.844 | 0.816 | 1.79 | 1.98 | 1.66 | 1.34 | 3.23 | 0.813 | 1.51 | 2.62 | 1.14 | 0.695
1.11 | 0.59 | 0.772 | PTTKTYFPQFD [HBA1_Y43_H46Q] | 0.499 | 0.428 | 0.611 | 0.922 | 0.737 | 0.83 | 0.672 | 0.576 | 0.617 | 0.597 | 0.636 | 0.58 | 0.74
0.91 | 0.446 | 0.819 | PTTKTYFPRFD [HBA1_Y43_H46R] | 0.505 | 0.373 | 0.38 | 0.772 | 0.731 | 0.569 | 0.493 | 0.455 | 0.319 | 0.609 | 0.432 | 0.421 | 0.421
0.744 | 0.512 | 0.785 | PVDGEYFTLQI [TP53_Y327_L323V] | 1.31 | 0.623 | 2.38 | 1.86 | 3.14 | 4.07 | 1.16 | 11.4 | 4.09 | 1.38 | 9.07 | 1.36 | 3.58
0.667 | 0.835 | 1.08 | PVDTYYDSTRG [DYNC2H1_Y2231_M2227V] | 0.713 | 0.554 | 1.31 | 1.12 | 0.909 | 1.18 | 0.934 | 2.01 | 1.09 | 0.953 | 1.58 | 0.608 | 0.955
